What is called stoichiometry N is a count of units in the complex or per binding partner.

From PMC10700544, “Acetylation regulates the oligomerization state and activity of RNase J, the Helicobacter pylori major ribonuclease” (Nature Communications, 2023) come the findings set out here.

This data set deals with the molecule itself. As to the kind of experiment: crystal structure; crystals from 0.1 M HEPES pH 7.5, 25% wt/v polyethylene glycol 1000; space group P4(1)22; one monomer in the asymmetric unit, tetramer by crystal symmetry.

B1: RNase J residues 139–691 (H. pylori strain 26695) with a C-terminal hexa-histidine tag (domain or fragment, Helicobacter pylori strain 26695, UniProt P56185 137-689, looked up)
chain: SKASVKITPLGGLGEIGGNMMVIETPKSAIVIDAGMSFPKEGLFGVDILIPDFSYLHQIKDKIAGIIITHAHEDHIGATPYLFKELQFPLYGTPLSLGLIGSKFDEHGLKKYRSYFKIVEKRCPISVGEFIIEWIHITHSIIDSSALAIQTKAGTIIHTGDFKIDHTPVDNLPTDLYRLAHYGEKGVMLLLSDSTNSHKSGTTPSESTIAPAFDTLFKEAQGRVIMSTFSSNIHRVYQAIQYGIKYNRKIAVIGRSMEKNLDIARELGYIHLPYQSFIEANEVAKYPDNEILIVTTGSQGETMSALYRMATDEHRHISIKPNDLVIISAKAIPGNEASVSAVLNFLIKKEAKVAYQEFDNIHVSGHAAQEEQKLMLRLIKPKFFLPVHGEYNHVARHKQTAISCGVPEKNIYLMEDGDQVEVGPAFIKKVGTIKSGKSYVDNQSNLSIDTSIVQQREEVASAGVFVATIFVNKNKQALLESSQFSSLGLVGFKDEKPLIKEIQGGLEVLLKSSNAEILNNPKKLEDHTRNFIRKALFKKFRKYPAIICHAHSF
notes: the results say 137–691); One monomer in the asymmetric unit; the tetramer (dimer-of-dimers) is generated by crystal symmetry; The CTD (587–691) is poorly ordered in the crystal; also called RNase J 139–691; C1hRSEj; source: E. coli, co-expressed with RhpA 21–465, purified (HiTrap Ni column, HALO resin flow-through, S200 SEC)
Take B1: the “stoichiometry N” value amounted to 4.
